# Source: publication PMC10896785
# Target: heat shock protein 90 (Hsp90), endogenous mouse, P07901
# Assay: in situ proximity-ligation assay (PLA)
# Conditions: chain shown with the change; primary mouse embryonic fibroblasts (MEFs); anti-FKBP51 and anti-Hsp90 antibodies; parent: est. 240; read off a plot
binder,measurement,value
"FK506-binding protein 51 kDa (FKBP51), wild-type mouse, Q64378 K352A; R356A (protein) MTTDEGTSNNGENPAATMTEQGEDITTKKDRGVLKIVKRVGTSDEAPMFGDKVYVHYKGMLSDGKKFDSSHDRKKPFAFSLGQGQVIKAWDIGVSTMKKGEICHLLCKPEYAYGSAGHLQKIPSNATLFFEIELLDFKGEDLFEDSGVIRRIKRKGEGYSNPNEGATVKVHLEGCCGGRTFDCRDVVFVVGEGEDHDIPIGIDKALVKMQREEQCILYLGPRYGFGEAGKPKFGIDPNAELMYEVTLKSFEKAKESWEMDTKEKLTQAAIVKEKGTVYFKGGKYTQAVIQYRKIVSWLEMEYGLSEKESKASESFLLAAFLNLAMCYLKLREYNKAVECCDKALGLDSANEAGLYARGEAQLLMNDFESAKGDFEKVLAVNPQNRAARLQISMCQRKAKEHNERDRRVYANMFKKFAERDAKEEASKAGSKKAVEGAAGKQHESQAMEEGKAKGHV",response (PLA dots/Nuclei),73
